This assay addresses T1, Protease (Savinase 16.0 LEX) (Lederbergia lenta, UniProt P29600).
T1 construct: purchased Novozymes Savinase 16.0 LEX
T1 sequence (P29600 1-269): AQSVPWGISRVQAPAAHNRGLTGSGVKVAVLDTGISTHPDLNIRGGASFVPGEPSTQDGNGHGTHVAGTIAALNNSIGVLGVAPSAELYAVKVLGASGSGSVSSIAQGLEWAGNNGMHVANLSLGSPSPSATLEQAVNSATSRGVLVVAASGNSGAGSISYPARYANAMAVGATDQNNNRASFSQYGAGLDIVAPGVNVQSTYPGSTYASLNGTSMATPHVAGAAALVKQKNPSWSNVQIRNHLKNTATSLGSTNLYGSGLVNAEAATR
Briefly: Storage stability of protease in liquid detergent N with stabilizer (Example 3). Type of assay: biochemical. Conditions: 1 week 40° C. The procedure: Peptide aldehydes Z-GAF-H, Z-GAL-H and Z-GAY-H were produced by peptide synthesis, all with a purity >80%. The peptide aldehydes were dissolved in DMSO to a concentration of 10 mg/ml before use.
The following detergent N with enzymes was prepared:
The following detergents with stabilizer according to the invention were prepared and normalized to 100 g of detergent:
The detergents were placed in closed glasses at 40° C. Residual activity of protease was measured (by comparison to a reference stored at −18° C.) after 1 week, using standard enzyme analytical methods (protease measured by hydrolysis of N,N-dimethylcasein at 40° C., pH 8.3).

These results are taken from patent US9181296B2, “Stabilized liquid enzyme compositions” (NOVOZYMES A/S, priority 2008, dated 2015).

Consider Z-GAY-H, for which the “Molar surplus of inhibitor relative to protease needed to reach the same residual activities as the other peptide aldehydes” value (compared with Z-GAL-H and Z-GAF-H in detergent N) is “approximately half”. For the setting “detergent N”, the “Efficiency for stabilizing the protease (in words)” value was “most efficient”.
